The nature of the data set: yeast display, Sf9 membrane polyspecificity reagent, FACS + sequencing; frameworks hold sequencing errors. The method in brief: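 Galactose induction of a Saccharomyces cerevisiae BJ5465 synthetic nanobody display library ran 36–48 hours. The cells were then stained for 1 hour at 4 °C with 10% biotinylated, detergent-solubilized Sf9 membrane reagent, pulled down on streptavidin microbeads and FACS-sorted into low and high (top ~1%) gates on expression and reagent-binding fluorescence. Labels for polyreactivity follow the gate of origin.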
Consider “QVQLVESGGGLVQAGGSLRLSCAASGRIFGYNAMGWYRQAPGKERELVAVITYSGGSTYYADSVKGRFTISRDNAKNTVYLQMNSMIPEDTAVYYCAADYQPYSYFWQGGTRDMDYWGQGTQVTVSS”, for which the “polyreactivity (PSR sort gate)” value was “low polyreactivity”.

On to “QVQLVESGGGLVQAGGSLRLSCAASGRIFGYNAMVWYRQAPGKERELVAAISYSGGSTYYADSVKGRFTISRDNAKNTVYLQMNSLKPEDTAVYYCATRPGYWRYEYWGQGTQVTVSS”, for which the “polyreactivity (PSR sort gate)” value is given as “high polyreactivity”.

On to “QVQLVESGGGLVQAGGSLRLSCAASGRIFGYNTMGWYRQAPGKERELVARISYDVDSTYYADSVKGRFTISRDNAKNTVYLQMNSLKPEDTAVYYCNARRSNLGSYIEYFGFDYWGQGTQVTVSS”, for which the “polyreactivity (PSR sort gate)” value is “low polyreactivity”.

In the case of “QVQLVESGGGLVQAGGSLRLSCAASGRIFGYNVMGWYRQAPGKERELVAAISYGGGRTTYADSVKGRFTISRDNAKNTVYLQMNSLKPEDTAVYYCNAGGQHVTLDNGDYWGQGTQVTVSS”, the “polyreactivity (PSR sort gate)” value is recorded as “high polyreactivity”.

For the sequence “QVQLVESGGGLVQAGGSLRLSCAASGRIFGYTMGWYRPAPGKERELVAAISKSGGSTYYADSVKGRFTISRDNAKNTVYLQMNSLKPEDTAVYYCNKPQRILYDYWGQGTQVTVSS”, the “polyreactivity (PSR sort gate)” value is given as “high polyreactivity”.

Take “QVQLVESGGGLVQAGGSLRLSCAASGRIFGYYAIGWYRQAPGKERELVAAITINGGRTYYADSVKGRFTISRDNAKNTVYLQMNSLKPEDTAVYYCTATSRYNRLGYWGQGTQVTVSS”: the “polyreactivity (PSR sort gate)” value was “high polyreactivity”.

Regarding “QVQLVESGGGLVQAGGSLRLSCAASGRIFGYYAMGWYRQAPGKERELVAAINSGGSTNYADSVKGRFTISRDNAKNTVYLQMNSLKPEDTAVYYCAAGWRYRYFRSRNFYPYYYWGQGTQVTVSS”, the “polyreactivity (PSR sort gate)” value is given as “high polyreactivity”.

On to “QVQLVESGGGLVQAGGSLRLSCAASGRIFGYYAMGWYRQAPGKERELVAAINWRGGNTNYADSVKGRFTISRDNAKNTVYLQMNSLKPEDTSVYYCNAQVLVRPIQGEYGYWGQGTQVTVSS”, for which the “polyreactivity (PSR sort gate)” value was “low polyreactivity”.

Consider “QVQLVESGGGLVQAGGSLRLSCAASGRIFGYYAMGWYRQAPGKERELVAAIRYSSGRTYYADSVKGRFTISRDNAKNNVYLQMNSLKPEDTAVYYCNAGYLFLRSYPHDYWGQGTQVTVSS”, for which the “polyreactivity (PSR sort gate)” value is given as “high polyreactivity”.

Take “QVQLVESGGGLVQAGGSLRLSCAASGRIFGYYAMGWYRQAPGKERELVAAIRYSSGRTYYADSVKGRFTISRDNAKNTVYLQMNSLKPEDTAVYYCNAYSSTYFYNYDYWGQGTQVTVSS”: the “polyreactivity (PSR sort gate)” value is recorded as “high polyreactivity”.

On to “QVQLVESGGGLVQAGGSLRLSCAASGRIFGYYAMGWYRQAPGKERELVAAISQGGGSTYADSVKGRFTISRDNAKNTVYLQMNSLKPEDTAVYYCAKRRRTGYGYWGQGTQVTVSS”, for which the “polyreactivity (PSR sort gate)” value was “high polyreactivity”.

As for “QVQLVESGGGLVQAGGSLRLSCAASGRIFGYYAMGWYRQAPGKERELVAASTSSDASTYYADSVKGRFTISRDNAKNTDYLQMNSLKPEDTAVYYCNADYPTWSYYLSGYYGYWGQGTQVTVSS”, the “polyreactivity (PSR sort gate)” value was “low polyreactivity”.

For “QVQLVESGGGLVQAGGSLRLSCAASGRIFGYYAMGWYRQAPGKERELVARITKTVGGTYYADSVKGRFTISRDNAKNTVYLQMNSLKPEDTAVYYCAARVWTGNGRSKGAYDYWGQGTQVTVSS”, the “polyreactivity (PSR sort gate)” value is reported as “high polyreactivity”.

In the case of “QVQLVESGGGLVQAGGSLRLSCAASGRIFGYYAMGWYRQAPGKERELVATINSVGSTNYADSVKGRFTISRDNAKNTVYLQMNSLKPEDTAVYYCATDSAYTFFTYRLWRHGYWGQGTQVTVSS”, the “polyreactivity (PSR sort gate)” value is reported as “low polyreactivity”.

“QVQLVESGGGLVQAGGSLRLSCAASGRIFGYYAMGWYRQAPGTERELVASIRRGTRTNYADSVKGRFTISRDNAKNTVYLQMNSLKPEDTAVYYCAATRFQFTTTPWYDYWGQGTQVTVSS”: the “polyreactivity (PSR sort gate)” value is reported as “high polyreactivity”.

For the sequence “QVQLVESGGGLVQAGGSLRLSCAASGRIFGYYTMGWYRQAPGKERELVAAINGRGTSTYYADSVKGRFTISRDNAKNTVYLQMNSLKPEDTAVYYCAAGGWGPTRAYDYWGQGTQVTVSS”, the “polyreactivity (PSR sort gate)” value is recorded as “high polyreactivity”.

On to “QVQLVESGGGLVQAGGSLRLSCAASGRIFHKYDMGWYRQAPGKERELVAAITTSGGSTYYADSVKGRFTISRDNAKNTVYLQMNSLKPEDTAVYYCADSWSRRERGFDYWGQGTQVTVSS”, for which the “polyreactivity (PSR sort gate)” value is listed as “high polyreactivity”.

For “QVQLVESGGGLVQAGGSLRLSCAASGRIFHSYTIGWYRPAPGNERELVAAINWSGTRTYYADSVKGRFTISRDNAKNTVYLQMNSLKPEDTAVYYCNRVGVTRSYRYDYWGQGTQVTVSS”, the “polyreactivity (PSR sort gate)” value is given as “high polyreactivity”.

Consider “QVQLVESGGGLVQAGGSLRLSCAASGRIFHTYAMGWYRQAPGKEREFVAAIRWSGGSTYYADSVKGRFTISRDNAKNTVYLQMNSLKPEDTAVYYCAREQVRYYSWFGYWGQGTQVTVSS”, for which the “polyreactivity (PSR sort gate)” value is on record as “high polyreactivity”.

In the case of “QVQLVESGGGLVQAGGSLRLSCAASGRIFHVNAMGWYRQAPGKERELVAAISTSGGRTYYADSVKGRFTISRDNAKNTVYLQMNSLKPEDTAVYYCAASLGGYGERYYYWGQGTQVTVSS”, the “polyreactivity (PSR sort gate)” value is on record as “high polyreactivity”.

“QVQLVESGGGLVQAGGSLRLSCAASGRIFHYNAMGSYRQAPVKERELVAAISTGGSTNYADSVKGRFTISRDNAKNTVYLQMNSLKPEDTAVYYCAAGPDPLGEDYWGQGTQVTVSS”: the “polyreactivity (PSR sort gate)” value is listed as “low polyreactivity”.

As to “QVQLVESGGGLVQAGGSLRLSCAASGRIFHYNAMGWYRQAPRKERELVAAISTGGSTNYADSVKGRFTISRDNAKNTVYLQMNSLKPEDTAVYYCAADHPVTYPTSKFDYWGQGTQVTVSS”, the “polyreactivity (PSR sort gate)” value was “low polyreactivity”.

Take “QVQLVESGGGLVQAGGSLRLSCAASGRIFHYNDMGWYRQAPWKERELVAAISTGGSTNYADSVKGRFTISRDNAKNTVYLQMNSLKPEDTAVYYCAADHPGTYPTTKFDYWGQGTQVTVSS”: the “polyreactivity (PSR sort gate)” value was “low polyreactivity”.

Regarding “QVQLVESGGGLVQAGGSLRLSCAASGRIFIAYMGWYRQAPGKERELVAAIDSGASTYYADSVKGRFTISRDNAKNTVYLQMNSLKPEDTAVYYCAADVVYDYGGMDYWGQGTQVTVSS”, the “polyreactivity (PSR sort gate)” value was “low polyreactivity”.

In the case of “QVQLVESGGGLVQAGGSLRLSCAASGRIFIKNAMGWYRQAPGKERELVAAISSGSSTYYADSVKGRFTISRDNAKNTVYLQMNSLKPEDTAVYLYGSWGQGTQVTVSS”, the “polyreactivity (PSR sort gate)” value is “low polyreactivity”.

Consider “QVQLVESGGGLVQAGGSLRLSCAASGRIFILNTMGWYRQAPGKERELVAGISYSGSTYYADSVKGRFTISRDNAKNTVYSQMNSLKPVDTAVYYCAADYDAAWYNDGYYYWGQGTQVTVSS”, for which the “polyreactivity (PSR sort gate)” value is “low polyreactivity”.

On to “QVQLVESGGGLVQAGGSLRLSCAASGRIFILYAMGWYRQAPGKERELVATITKSGGNTYYADSVKGRFTISRDNAKNTVYLQMNSLKPEDTAVYYCAAQGRDSTPHGYWGQGTQVTVSS”, for which the “polyreactivity (PSR sort gate)” value is listed as “high polyreactivity”.

As for “QVQLVESGGGLVQAGGSLRLSCAASGRIFINDMGWYRQAPGKERELVAAIRSDGSTNYADSVKGRFTISRDNAKNTVYLQMNSLKPEDTAVYYCNVDGYFLFVRGYEYWGQGTQVTVSS”, the “polyreactivity (PSR sort gate)” value is on record as “low polyreactivity”.

As for “QVQLVESGGGLVQAGGSLRLSCAASGRIFINYAMGWYRQAPGKERELVAAITTNGGSTYYADSVKGRFTISRDNAKYTVYLQMNSLKPEDTAVYYCAARRRYKMDYWGQGTQVTVSS”, the “polyreactivity (PSR sort gate)” value is “high polyreactivity”.

Regarding “QVQLVESGGGLVQAGGSLRLSCAASGRIFIRNDMGWYRQAPGKERELVAVITRSGGRTYYADSVKGRFTISRDNAKNTVYLQMNSLKPEDTAVYYCAKRQAFKQAPYEYWGQGTQVTVSS”, the “polyreactivity (PSR sort gate)” value is recorded as “low polyreactivity”.

For “QVQLVESGGGLVQAGGSLRLSCAASGRIFISNAMGWYRQAPGKERELVAAITWIGDRTYYADSVKGRFTISRDNAKNTVYLQMNSLKPEDTAVYYCNRVTSRVSGRYSYDYWGQGTQVTVSS”, the “polyreactivity (PSR sort gate)” value is “high polyreactivity”.

“QVQLVESGGGLVQAGGSLRLSCAASGRIFISYTMGWYRQAPGKDRELVAGIDSSGTSTYYADSVKGRFTISRDNAKNTVYLQMNSLKPEDTAVYYCNVDGNWKDTSTELDYWGQGTQVTVSS”: the “polyreactivity (PSR sort gate)” value is “low polyreactivity”.

Turning to “QVQLVESGGGLVQAGGSLRLSCAASGRIFIVNAMGWYRQAPGKERELVAAISYRGGSTYYADSVKGRFTISRDNAKNTVYLQMNSLKPEDTAVYYCNKDSTGDGYDYWGQGTQVTVSS”, the “polyreactivity (PSR sort gate)” value was “low polyreactivity”.

Consider “QVQLVESGGGLVQAGGSLRLSCAASGRIFIYNAMGWSRQAPGKEREFVAAISSSGGSTYYADSVKGRFTISRDNAKNTVYLQMNSLKPEDTAVYYCAAGGWPYSGGWFFQPNYDYWGQGTQVTVSS”, for which the “polyreactivity (PSR sort gate)” value is “low polyreactivity”.

Take “QVQLVESGGGLVQAGGSLRLSCAASGRIFKDYAMGWYRQAPGKEREFVARISSRGGRTYYADSVKGRFTISRDNAKNTVYLQMNSLKPEDTAVYYCAVTTSPYRPTKFDYWGQGTQVTVSS”: the “polyreactivity (PSR sort gate)” value was “high polyreactivity”.

For “QVQLVESGGGLVQAGGSLRLSCAASGRIFKGYAMGWYRQAPGKERELVASISKRGVSTYYADSVKGRFTISRDNAKNTVYLQMNSLKPEDTAVYYCNARAPGYYYTRYDYWGQGTQVTVSS”, the “polyreactivity (PSR sort gate)” value was “high polyreactivity”.

Turning to “QVQLVESGGGLVQAGGSLRLSCAASGRIFKINAMGWYRQAPGKERELVAAITRSGGTTYYADSVKGRFTISRDNAKNTVYLQMNSLKPEDTAVDYCARAYSLRVVTGDYWGQGTQVTVSS”, the “polyreactivity (PSR sort gate)” value is “high polyreactivity”.

For the sequence “QVQLVESGGGLVQAGGSLRLSCAASGRIFKIYAMGWYRQAPGKEREFVATISSGGRTNYADSVKGRFTISRDNAKNTVYLQMNSLKPEDTAVYYCNAGARVLYETESFDYWGQGIQVTVSS”, the “polyreactivity (PSR sort gate)” value was “low polyreactivity”.

On to “QVQLVESGGGLVQAGGSLRLSCAASGRIFKIYAMGWYRQAPGKERELVAAISGRGGSTYYADSVKGRFTISRDNAKNTVYLQMNSLKPEDTAVYYCAAVGYGFSAYSTYDYWGQGTQVTVSS”, for which the “polyreactivity (PSR sort gate)” value is given as “high polyreactivity”.

On to “QVQLVESGGGLVQAGGSLRLSCAASGRIFKKNAMGWYRQAPGKERELVAAIRGSGDSTFYADSVKGRFTISRDNAKNTVYLQMNSLKPEDTAVYYCAAGDVPRRIYLVYVGYLLDYWGQGTQVTVSS”, for which the “polyreactivity (PSR sort gate)” value was “low polyreactivity”.

As for “QVQLVESGGGLVQAGGSLRLSCAASGRIFKKNAMGWYRQAPGKERELVAAISARGGSTYYADSVKGRFTISRDNAKNTVYLQMNSLKPEDTAVYYCAADEVDESIHYYTFDYWGQGTQVTVSS”, the “polyreactivity (PSR sort gate)” value is “high polyreactivity”.

The values above are taken from the nanobody polyreactivity screen of Harvey et al. (2022).
